Laboratory results from patent US20250019439A1 (Adimab, published 2025).

Experiments:
ADI-26906 IgG [1] = target: T1, ADI-26906 IgG; assay: SPR Carterra avidity, CHO anti-ID, *koff limit
T1 construct: anti-CD3 IgG
Experimental: (§1) Kinetic analysis was conducted at 25° C. in an HBSTE running buffer system (Carterra Cat #3630) using a Carterra LSA (Carterra USA, Salt Lake City, UT). The sample compartment was maintained at 20° C. for the duration of each experiment.
(§2) For antibody capture experiments, a goat anti-human Fc antibody (Jackson ImmunoResearch) was covalently coupled to an HC30M sensor chip surface via standard amine coupling (1:1 EDC:NHS) and then blocked with ethanolamine (1.0 M, pH 8.5). Covalent coupling steps were performed in 25 mM MES buffer (Carterra, Cat #3625) plus 0.05% Tween20. The anti-CD3 antibodies (100 nM in running buffer) were flowed over discrete regions of interest on the chip surface for 5 minutes. […] Dissociation of the anti-idiotype antibodies was monitored for 300s. Several blank buffer samples were injected over the entire chip surface at the start of each non-regenerative kinetic cycle. The preceding blank buffer injection was used for blank surface subtraction. At the end of each non-regenerative kinetic cycle, all surfaces were regenerated via two 30s injections of 10 mM glycine, pH 1.7.
For data processing and fitting, sensorgrams were double reference subtracted with a baseline drift correction of 4 RU. Sensorgrams were y-aligned and baseline corrected, filtered and cropped to include only the association and dissociation steps. Data was fitted to a 1:1 binding model using Carterra Kinetics Data Analysis software version 1.7.1.3055.

ADI-22523 IgG = target: T2, ADI-22523 IgG; assay: BLI; tip anti-ID IgG, solution ADI-22523 IgG
T2 construct: anti-CD3 IgG
Summary of the method: (§3)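 Sensors carrying captured anti-ID IgG were equilibrated 30 min in assay buffer before a 60 s baseline. Equilibrium KD was taken as koff/kon from a 1:1 model.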

ADI-76357 = target: T3, ADI-76357; assay: SPR Carterra avidity, yeast anti-ID
T3 construct: anti-CD3 antibody made in CHO cells, captured by anti-human Fc
Summary of the method: (§4)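 Fitted with a 1:1 binding model after double referencing: Carterra LSA kinetics at 25° C in HBSTE, with anti-idiotype analytes binding anti-CD3 antibodies (100 nM) captured via anti-human Fc on HC30M chip. Dissociation followed 300 s.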

ADI-26919 = target: T4, ADI-26919; assay: SPR Carterra avidity, yeast anti-ID
T4 construct: anti-CD3 antibody made in CHO cells, captured by anti-human Fc
Summary of the method: as §4

ADI-26924 = target: T5, ADI-26924; assay: SPR Carterra avidity, yeast anti-ID
T5 construct: anti-CD3 antibody made in CHO cells, captured by anti-human Fc
Summary of the method: as §4

ADI-26943 = target: T6, ADI-26943; assay: SPR Carterra avidity, yeast anti-ID
T6 construct: anti-CD3 antibody made in CHO cells, captured by anti-human Fc
Summary of the method: as §4

ADI-67447 = target: T7, ADI-67447; assay: SPR Carterra avidity, yeast anti-ID
T7 construct: anti-CD3 antibody made in CHO cells, captured by anti-human Fc
Summary of the method: as §4

ADI-76359 [2] = target: T8, ADI-76359; assay: SPR Carterra avidity, yeast anti-ID
T8 construct: anti-CD3 antibody made in CHO cells, captured by anti-human Fc
Summary of the method: as §4

ADI-74968 [3] = target: T9, ADI-74968; assay: SPR Carterra avidity, yeast anti-ID
T9 construct: pH-dependent anti-CD3 antibody made in CHO cells
Summary of the method: as §4

ADI-26920 IgG = target: T10, ADI-26920 IgG; assay: SPR Carterra avidity, yeast anti-ID
T10 construct: anti-CD3 IgG
Summary of the method: as §4

ADI-26913 IgG = target: T11, ADI-26913 IgG; assay: SPR Carterra avidity, yeast anti-ID
T11 construct: anti-CD3 IgG
Summary of the method: as §4

ADI-26906 IgG [4] = target: T1, ADI-26906 IgG; assay: SPR Carterra avidity, yeast anti-ID
Summary of the method: as §4

ADI-26916 IgG [5] = target: T12, ADI-26916 IgG; assay: SPR Carterra avidity, yeast anti-ID
T12 construct: anti-CD3 IgG
Summary of the method: as §4

ADI-22523 Fab = target: T13, ADI-22523 Fab; assay: BLI; tip anti-ID IgG, solution ADI-22523 Fab
T13 construct: anti-CD3 Fab by papain digestion of the IgG
Summary of the method: as §3

ADI-76359 [6] = target: T8, ADI-76359; assay: SPR Carterra avidity, CHO anti-ID
Experimental: as §1, §2
(§5) In Tables 10A-10C, anti-CD3 antibodies are listed by ADI number or CTL number in the first column. […] CTL-62223 is mosunetuzumab, CTL-62227 is odronextamab, CTL-62228 is glofitamab, and CTL-62240 is ONO-4685. […] “W.B.” means weak binding under the conditions of this assay and thus a KD was unable to be assigned. “N.B.” means no binding under the conditions of this assay.

ADI-74968 [7] = target: T9, ADI-74968; assay: SPR Carterra avidity, CHO anti-ID
Experimental: as §1, §2, §5

ADI-26916 IgG [8] = target: T12, ADI-26916 IgG; assay: SPR Carterra avidity, CHO anti-ID
Experimental: as §1, §2, §5

ADI-26920 Fab = target: T14, ADI-26920 Fab; assay: BLI; tip ADI-34145 IgG, solution anti-CD3 Fab
T14 construct: anti-CD3 Fab by papain digestion of the IgG
Experimental: (§6) ForteBio affinity measurements were performed generally as previously described (Estep et al., MAbs. 2013 5(2):270-8). Briefly, ForteBio affinity measurements were performed by loading antibody IgG or Fabs on-line onto AHC sensors. Sensors were equilibrated off-line in assay buffer for 30 minutes and then monitored on-line for 60 seconds for baseline establishment. For avid binding measurement, sensors with loaded antibodies were exposed to IgG or Fab solutions for 3 minutes, afterwards they were transferred to assay buffer for 3 minutes for off-rate measurement. Kinetics data were fit using a 1:1 binding model in the data analysis software provided by ForteBio to obtain equilibrium dissociation constant (KD=koff/kₒₙ) values. In each column, tip-immobilized antibodies are listed first and solution antibodies second.
(§7) CTL-19613 is an IgG1 antibody prepared with anti-CD3 variable domains corresponding with those of clone 12C described in United States Publication Number US 2010/0183615 (e.g., see paragraphs 469-479 and FIG. 25 thereof), which also make up the CD3 binding domain of the bispecific antibody pasotuxizumab. […] In each column, tip-immobilized antibodies are listed first and solution antibodies second.

CTL-19613 Fab = target: T15, CTL-19613 Fab; assay: BLI; tip ADI-34145 IgG, solution anti-CD3 Fab
T15 construct: anti-CD3 Fab by papain digestion of the IgG1
Experimental: as §6, §7

ADI-26912 = target: T16, ADI-26912; assay: SPR Carterra avidity, yeast anti-ID
T16 construct: anti-CD3 antibody made in CHO cells, captured by anti-human Fc
Summary of the method: as §4

ADI-26915 = target: T17, ADI-26915; assay: SPR Carterra avidity, yeast anti-ID
T17 construct: anti-CD3 antibody made in CHO cells, captured by anti-human Fc
Summary of the method: as §4

CTL-62223 = target: T18, CTL-62223; assay: SPR Carterra avidity, yeast anti-ID
T18 construct: also called mosunetuzumab
Summary of the method: as §4

ADI-67450 = target: T19, ADI-67450; assay: SPR Carterra avidity, yeast anti-ID
T19 construct: anti-CD3 antibody made in CHO cells, captured by anti-human Fc
Summary of the method: as §4

ADI-70330 = target: T20, ADI-70330; assay: SPR Carterra avidity, yeast anti-ID
T20 construct: anti-CD3 antibody made in CHO cells, captured by anti-human Fc
Summary of the method: as §4

ADI-70327 = target: T21, ADI-70327; assay: SPR Carterra avidity, yeast anti-ID
T21 construct: anti-CD3 antibody made in CHO cells, captured by anti-human Fc
Summary of the method: as §4

ADI-74966 = target: T22, ADI-74966; assay: SPR Carterra avidity, yeast anti-ID
T22 construct: pH-dependent anti-CD3 antibody made in CHO cells
Summary of the method: as §4

ADI-26921 IgG = target: T23, ADI-26921 IgG; assay: SPR Carterra avidity, yeast anti-ID
T23 construct: anti-CD3 IgG
Summary of the method: as §4

ADI-76362 = target: T24, ADI-76362; assay: SPR Carterra avidity, yeast anti-ID
T24 construct: anti-CD3 antibody made in CHO cells, captured by anti-human Fc
Summary of the method: as §4

ADI-76361 = target: T25, ADI-76361; assay: SPR Carterra avidity, yeast anti-ID
T25 construct: anti-CD3 antibody made in CHO cells, captured by anti-human Fc
Summary of the method: as §4

T12 sequence (VH, as listed by the source, chain 1 of 2): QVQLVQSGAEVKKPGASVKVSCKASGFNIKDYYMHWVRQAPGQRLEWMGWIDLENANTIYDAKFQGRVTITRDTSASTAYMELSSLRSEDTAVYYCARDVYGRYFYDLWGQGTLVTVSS
T12 sequence (VL, as listed by the source, chain 2 of 2): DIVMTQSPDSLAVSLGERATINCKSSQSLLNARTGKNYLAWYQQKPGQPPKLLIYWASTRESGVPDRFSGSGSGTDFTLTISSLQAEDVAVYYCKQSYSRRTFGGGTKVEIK
T9 sequence (VH, as listed by the source, chain 1 of 2): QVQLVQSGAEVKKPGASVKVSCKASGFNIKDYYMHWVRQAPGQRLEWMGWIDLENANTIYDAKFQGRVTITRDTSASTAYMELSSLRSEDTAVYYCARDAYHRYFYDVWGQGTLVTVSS
T9 sequence (VL, as listed by the source, chain 2 of 2): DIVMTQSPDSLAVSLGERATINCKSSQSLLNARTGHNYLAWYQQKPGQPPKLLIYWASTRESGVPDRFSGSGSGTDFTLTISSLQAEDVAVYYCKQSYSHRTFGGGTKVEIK
T1 sequence (VH, as listed by the source limits assumed, chain 1 of 2): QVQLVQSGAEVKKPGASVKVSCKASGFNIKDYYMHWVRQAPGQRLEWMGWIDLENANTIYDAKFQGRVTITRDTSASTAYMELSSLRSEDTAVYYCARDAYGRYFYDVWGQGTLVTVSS
T8 sequence (VH, as listed by the source, chain 1 of 2): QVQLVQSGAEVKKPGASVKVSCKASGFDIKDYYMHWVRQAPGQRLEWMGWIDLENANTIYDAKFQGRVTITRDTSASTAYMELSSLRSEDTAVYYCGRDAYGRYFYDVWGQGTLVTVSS
T8 sequence (VL, as listed by the source, chain 2 of 2): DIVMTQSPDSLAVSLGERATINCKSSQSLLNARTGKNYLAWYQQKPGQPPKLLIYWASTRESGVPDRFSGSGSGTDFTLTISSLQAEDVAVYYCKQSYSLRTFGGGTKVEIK
T5 sequence (VH, as listed by the source, chain 1 of 2): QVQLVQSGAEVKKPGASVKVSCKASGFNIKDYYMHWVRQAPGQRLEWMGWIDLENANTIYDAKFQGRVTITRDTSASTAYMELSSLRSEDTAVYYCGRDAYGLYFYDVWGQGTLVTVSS
T6 sequence (VH, as listed by the source, chain 1 of 2): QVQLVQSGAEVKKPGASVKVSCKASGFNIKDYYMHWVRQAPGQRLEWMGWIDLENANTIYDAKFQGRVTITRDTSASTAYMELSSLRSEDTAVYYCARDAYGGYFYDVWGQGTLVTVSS
T6 sequence (VL, as listed by the source, chain 2 of 2): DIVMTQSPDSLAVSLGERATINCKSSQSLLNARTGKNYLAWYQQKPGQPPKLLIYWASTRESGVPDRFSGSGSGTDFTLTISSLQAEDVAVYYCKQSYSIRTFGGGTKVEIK
T10 sequence (VH, as listed by the source limits assumed, chain 1 of 2): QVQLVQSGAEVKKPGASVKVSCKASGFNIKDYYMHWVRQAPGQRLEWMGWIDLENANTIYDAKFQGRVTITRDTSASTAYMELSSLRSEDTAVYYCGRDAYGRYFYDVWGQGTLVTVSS
T2 sequence (VH, as listed by the source limits assumed, chain 1 of 2): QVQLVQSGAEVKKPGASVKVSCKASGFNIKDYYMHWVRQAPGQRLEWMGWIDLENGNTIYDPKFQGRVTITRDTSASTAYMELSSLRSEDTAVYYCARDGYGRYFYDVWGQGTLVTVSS
T2 sequence (VL, as listed by the source limits assumed, chain 2 of 2): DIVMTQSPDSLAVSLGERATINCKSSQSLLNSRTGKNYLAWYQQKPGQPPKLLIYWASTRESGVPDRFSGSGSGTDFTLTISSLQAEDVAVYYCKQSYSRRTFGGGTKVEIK
T11 sequence (VH, as listed by the source limits assumed, chain 1 of 2): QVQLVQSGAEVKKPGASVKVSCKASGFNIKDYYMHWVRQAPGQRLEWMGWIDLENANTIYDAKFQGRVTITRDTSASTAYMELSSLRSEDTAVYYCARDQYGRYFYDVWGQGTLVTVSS
T3 sequence (VH, as listed by the source, chain 1 of 2): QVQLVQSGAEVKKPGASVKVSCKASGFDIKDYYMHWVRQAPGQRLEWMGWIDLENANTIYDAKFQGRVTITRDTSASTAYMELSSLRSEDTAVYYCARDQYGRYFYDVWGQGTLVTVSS
T16 sequence (VH, as listed by the source, chain 1 of 2): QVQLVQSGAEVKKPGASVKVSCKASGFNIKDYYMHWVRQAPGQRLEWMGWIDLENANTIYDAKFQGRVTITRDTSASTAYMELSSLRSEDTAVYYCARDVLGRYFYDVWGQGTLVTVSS
T23 sequence (VH, as listed by the source limits assumed, chain 1 of 2): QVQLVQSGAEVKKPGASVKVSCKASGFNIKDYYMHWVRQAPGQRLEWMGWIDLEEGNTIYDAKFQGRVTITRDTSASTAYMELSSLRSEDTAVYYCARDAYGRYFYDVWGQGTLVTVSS
T25 sequence (VH, as listed by the source, chain 1 of 2): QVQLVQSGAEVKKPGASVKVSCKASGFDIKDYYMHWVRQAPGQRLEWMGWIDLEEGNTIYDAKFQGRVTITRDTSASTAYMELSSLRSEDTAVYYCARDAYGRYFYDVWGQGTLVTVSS
T21 sequence (VH, as listed by the source limits assumed, chain 1 of 2): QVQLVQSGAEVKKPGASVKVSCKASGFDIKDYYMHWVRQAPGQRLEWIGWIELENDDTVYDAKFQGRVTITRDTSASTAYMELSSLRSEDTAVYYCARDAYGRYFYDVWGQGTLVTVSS
T21 sequence (VL, as listed by the source limits assumed, chain 2 of 2): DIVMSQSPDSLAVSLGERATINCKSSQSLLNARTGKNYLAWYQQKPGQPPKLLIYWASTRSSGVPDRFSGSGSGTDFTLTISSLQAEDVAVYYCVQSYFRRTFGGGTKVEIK
T22 sequence (VH, as listed by the source, chain 1 of 2): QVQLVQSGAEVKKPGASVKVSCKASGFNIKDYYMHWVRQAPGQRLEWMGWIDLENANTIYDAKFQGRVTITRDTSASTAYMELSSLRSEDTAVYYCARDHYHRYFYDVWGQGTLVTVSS
T24 sequence (VH, as listed by the source, chain 1 of 2): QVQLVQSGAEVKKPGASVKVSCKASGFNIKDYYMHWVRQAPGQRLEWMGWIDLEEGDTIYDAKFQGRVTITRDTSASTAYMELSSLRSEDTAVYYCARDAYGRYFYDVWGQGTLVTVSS
T19 sequence (VH, as listed by the source limits assumed, chain 1 of 2): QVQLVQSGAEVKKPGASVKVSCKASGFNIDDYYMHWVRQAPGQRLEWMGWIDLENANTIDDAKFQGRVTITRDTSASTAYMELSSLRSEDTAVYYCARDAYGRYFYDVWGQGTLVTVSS
T7 sequence (VH, as listed by the source limits assumed, chain 1 of 2): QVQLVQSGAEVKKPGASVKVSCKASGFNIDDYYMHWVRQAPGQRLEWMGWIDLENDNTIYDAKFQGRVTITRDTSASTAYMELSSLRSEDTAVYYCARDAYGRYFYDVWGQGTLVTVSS
T18 sequence (VH, as listed by the source, chain 1 of 2): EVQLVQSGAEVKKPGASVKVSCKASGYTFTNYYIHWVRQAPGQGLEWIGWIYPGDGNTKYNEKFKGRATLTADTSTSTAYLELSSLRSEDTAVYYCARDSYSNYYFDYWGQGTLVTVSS
T18 sequence (VL, as listed by the source, chain 2 of 2): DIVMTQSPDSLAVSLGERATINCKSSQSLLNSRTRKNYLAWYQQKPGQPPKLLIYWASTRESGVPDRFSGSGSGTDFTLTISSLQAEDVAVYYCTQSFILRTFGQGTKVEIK
T17 sequence (VH, as listed by the source, chain 1 of 2): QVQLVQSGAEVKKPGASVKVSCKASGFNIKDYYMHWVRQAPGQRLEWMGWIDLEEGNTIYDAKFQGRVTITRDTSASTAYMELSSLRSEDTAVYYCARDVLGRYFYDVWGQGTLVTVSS
T20 sequence (VH, as listed by the source limits assumed, chain 1 of 2): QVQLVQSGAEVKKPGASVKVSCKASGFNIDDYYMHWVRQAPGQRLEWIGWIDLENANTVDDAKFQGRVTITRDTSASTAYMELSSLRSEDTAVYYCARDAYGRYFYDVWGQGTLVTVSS

Binder	Kd (ADI-26906 IgG [1])	Kd (ADI-22523 IgG)	Kd (ADI-76357)	Kd (ADI-26919)	Kd (ADI-26924)	Kd (ADI-26943)	Kd (ADI-26920 IgG)	Kd (ADI-26913 IgG)	Kd (ADI-22523 Fab)	Kd (ADI-76359 [6])	Kd (ADI-74968 [7])	Kd (ADI-26916 IgG [8])	other results
ADI-34145 IgG (antibody, V domains shown, anti-ID IgG) VH: EVQLLESGGGLVQPGGSLRLSCAASGFTFSSYAMSWVRQAPGKGLEWVSTISGSGGSTYYADSVKGRFTISRDNSKNTLYLQMNSLRAEDTAVYYCARLGGRRGSGSSYYYYYGMDVWGQGTTVTVSS VL: not shown	6.4 nM	2.72 nM	23 nM	18 nM	17 nM	9.5 nM	8.6 nM	18 nM	4.13 nM	8 nM	41 nM	17 nM	Kd (ADI-67447): 27 nM; Kd (ADI-76359 [2]): 14 nM; Kd (ADI-74968 [3]): 67 nM; Kd (ADI-26906 IgG [4]): 14 nM; Kd (ADI-26916 IgG [5]): 20 nM; Kd (ADI-26920 Fab): 3.71 nM; binding result (CTL-19613 Fab): no binding
ADI-34134 IgG (antibody, V domains shown) VH: QVQLVQSGAEVKKPGSSVKVSCKASGGTFSSYAISWVRQAPGQGLEWMGGIIPIFGTANYAQKFQGRVTITADESTSTAYMELSSLRSEDTAVYYCARGAPNYYGSGGYDDGWFDPWGQGTLVTVSS VL: EIVLTQSPGTLSLSPGERATLSCRASQSVSSDYLAWYQQKPGQAPRLLIYGASSRATGIPDRFSGSGSGTDFTLTISRLEPEDFAVYYCQQFGRVPTFGGGTKVEIK	0.18 nM	0.46 nM	9.5 nM	9.1 nM	20 nM	13 nM	16 nM	21 nM	5.62 nM	0.15 nM	0.78 nM	0.17 nM	Kd (ADI-26912): 34 nM; Kd (ADI-26915): 19 nM; Kd (CTL-62223): 18 nM; Kd (ADI-67450): 12 nM; Kd (ADI-70330): 13 nM; Kd (ADI-70327): 14 nM; Kd (ADI-74966): 52 nM; Kd (ADI-26921 IgG): 3.6 nM; Kd (ADI-76362): 6.3 nM; Kd (ADI-76361): 7.1 nM
